Assay results reported in patent US20200223921A1 (TRUEBINDING, published 2020).
Blank lines part the entries; values can stand above or below the molecule they belong to.

B1: mouse TIM-3 Fc protein (R&D systems) (Fc fusion, UniProt Q8VIM0 20-191, looked up)
chain: RSLENAYVFEVGKNAYLPCSYTLSTPGALVPMCWGKGFCPWSQCTNELLRTDERNVTYQKSSRYQLKGDLNKGDVSLIIKNVTLDDHGTYCCRIQFPGLMNDKKLELKLDIKAAKVTPAQTAHGDSTTASPRTLTTERNGSETQTLVTLHNNNGTKISTWADEIKDSGETIR
notes: Bought; also called mTIM-3 Fc; mTIM-3-Fc; not shown: Fc

Key:
[1] = biological target: mouse Gal3 (endogenous, on B16F10 tumor cells and RAW264.7 macrophages) (mouse) (UniProt P16110); experiment: flow cytometry on B16F10 cells, rat anti mouse Gal3 PE against control rat IgG PE
[2] = biological target: human Gal9 protein (R&D systems) (human) (UniProt O00182); experiment: ELISA: plate coated with hGal9, mTIM-3 Fc with or without 25 mM alpha-lactose
human Gal9 protein (R&D systems) (human), sequence (O00182 other isoform, or with tags, fused parts or gaps limits assumed): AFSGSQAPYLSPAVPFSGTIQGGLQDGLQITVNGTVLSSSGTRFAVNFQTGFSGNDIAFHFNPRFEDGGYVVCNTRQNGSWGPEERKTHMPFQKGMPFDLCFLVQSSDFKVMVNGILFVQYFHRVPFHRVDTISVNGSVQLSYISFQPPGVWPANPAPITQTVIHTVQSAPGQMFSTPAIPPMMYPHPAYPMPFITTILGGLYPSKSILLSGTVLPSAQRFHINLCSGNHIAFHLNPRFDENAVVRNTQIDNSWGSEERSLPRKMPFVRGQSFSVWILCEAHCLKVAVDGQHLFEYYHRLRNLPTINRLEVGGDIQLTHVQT

[3] = biological target: T1, Flag-tagged human Gal3 protein stably expressed on A20 cells (A20 Gal3 cells) (human, UniProt P17931 2-250); experiment: flow cytometry: mTIM-3 Fc on live A20 Gal3 cells, anti-hFc APC detection (FIG. 4B, row 2)
T1 construct: Mouse B lymphoma A20 cells transfected with a construct encoding Flag-tagged human Gal3; also called A20 cells overexpressing human Gal3; hGal3; not shown: Flag tag
T1 sequence (P17931 2-250): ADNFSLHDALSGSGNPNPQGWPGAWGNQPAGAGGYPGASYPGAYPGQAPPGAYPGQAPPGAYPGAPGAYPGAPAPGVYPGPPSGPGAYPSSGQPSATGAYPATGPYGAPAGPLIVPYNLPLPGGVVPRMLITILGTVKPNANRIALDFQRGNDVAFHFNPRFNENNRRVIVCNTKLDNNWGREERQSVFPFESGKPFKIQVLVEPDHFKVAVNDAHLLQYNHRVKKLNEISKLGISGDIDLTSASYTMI
Procedure: Flow cytometry analysis was performed to evaluate the binding between TIM-3 and Gal3 using A20 cells. A20 Gal3 cells were incubated with 10% FBS HBSS solution that contains with or without mouse TIM-3 Fc on ice for 20 minutes. There are five experimental groups: in group 1, A20 Gal3 cells were incubated without mTIM-3 Fc protein as control; in group 2, A20 Gal3 cells were incubated with mTIM-3 Fc protein; in groups 3, 4, 5, in addition to mTIM-3 Fc protein, anti-mouse TIM-3 polyclonal antibody (R&D System, Minneapolis, Minn.) (group 3), monoclonal antibody RMT3-23 (Bio X cell, West Lebanon, N.H.) (group 4), monoclonal antibody 215015 (R&D Systems) (group 5), were also added to test if these antibodies could block Gal3 and Tim3 binding. For blocking, cells were incubated with 10% FBS HBSS containing mentioned antibodies, then were added with 10% FBS HBSS containing mTIM-3 Fc for 20 min. Samples were centrifuged and pellet were added 10% FBS HBSS containing APC conjugated anti-hFc antibodies (Jackson ImmunoResearch, West Grove, Pa.) for 20 min. After spinning, live/dead cells were stained with Violet dead cell stain kit (Life Technologies). Stained cells were subjected to flow analysis.

[4] = biological target: B1; experiment: ELISA: plate coated with mGal3 at 10 ug/ml, mTIM-3 Fc (FIGS. 5A-5C)
Procedure: In FIG. 5A, different anti Gal3 antibodies, i.e. mGal3 polyclonal antibody (R&D sytems), mAb IMT001, mAb M3/38 (Thermofisher Scientific) (FIG. 5A), were added to well that has been coated with Gal3. The antibodies were incubated for 10 minutes and mouse TIM-3 Fc were then added to the plates and incubated for an additional one-hour incubation. Plates were then washed for three times and followed by incubation with anti human-IgG-HRP (Jackson ImmunoResearch) for 1 h at room temperature. The color was developed with TMB subtract (GeneTex, Irvine, Calif.) after three time washes with TBST and the reaction was terminated with 1N HCl. The optical density (OD) was read at 450 nm. The results were expressed as the average OD of duplicates±SD.
In FIG. 5B, mouse Gal3 protein (BioLegend) in PBS (groups 1 and 2) or PS (Sigma-Aldrich, St. Louis, Mo.) in ethanol (groups 3 and 4) were coated on the plates and incubated at 4° C. overnight. Anti mTIM-3 mouse antibodies, mAb RMT3-23 (Bio X cell), was added to the coated plates for groups 2 and 4 only. Secondary anti human-IgG-HRP antibody and substrates were added as described above to detect the binding of the mTIM-3 to mGal3 or PS. […]

fold of MFI over isotype control antibody [1]: 10 fold
Molecule: rat anti mouse Gal3 PE antibody (Thermo Fisher Scientific)

Molecule: B1
fold reduction in ELISA signal with 25 mM alpha-lactose against no lactose [2]: > 10 fold | binding result [3]: binds

binding result [4]: binds
B2: mouse Gal3 protein (BioLegend) (ligand)
chain: ADSFSLNDALAGSGNPNPQGYPGAWGNQPGAGGYPGAAYPGAYPGQAPPGAYPGQAPPGAYPGQAPPSAYPGPTAPGAYPGPTAPGAYPGSTAPGAFPGQPGAPGAYPSAPGGYPAAGPYGVPAGPLTVPYDLPLPGGVMPRMLITIMGTVKPNANRIVLDFRRGNDVAFHFNPRFNENNRRVIVCNTKQDNNWGKEERQSAFPFESGKPFKIQVLVEADHFKVAVNDAHLLQYNHRMKNLREISQLGISGDITLTSANHAMI
notes: Bought recombinant protein coated on ELISA plates; also called mGal3
